Reference: the DeepSol protein solubility set

Assay: soluble on expression in E. coli; label from the status in PepcDB or PDB records

For “VIADDFTGATDIASFLVENGMPTVQINDVPTGTQPEGCDAVVISLKTRSCPAQEAIKQSLAALVWLKKQGCQQVYFKYCSTFDSTAEGNIGPVTDALMVALDTSFTVISPALPVNGRTVYQGYLFVMNHLLAESGMRHHPINPMTDSYLPRLMEAQAQGRCGVIPAQTLDEGVAATRAALSRLQQEGYRYAVLDALNERHLEIQGEVLRDAPLVTGGSGLAMGLARQWAKHGVSQARSAGYPLSGRAVVLSGSCSQMTNQQVAFYRQHAPTRDVDVARCLSSETREAYAEALAQWVLSQDSELAPMISATASTQALAAIQQQYGATEASHAVEALFSLLAARLAEGGITRFIVAGGETSGVVTQSLGITGFHIGPCISPGVPWVNALHAPVSLALKSGNFGDES”, which “soluble on expression in E. coli” value is on record?
Its value is “not soluble”.

Which “soluble on expression in E. coli” value does the source give for “LSIPEDYQVRLQPTRVAGSYPLVRLEFTGATVDAPLMTQIARKYNIDVSILSSDLDYAGGVKFGMMVAEIFGNADDDEAAIRYLRENNVKVEVLGYVL” here?
Its value is “not soluble”.

For “MKILVIGAGPAGLVFASQLKQARPLWAIDIVEKNDEQEVLGWGVVLPGRPGQHPANPLSYLDAPERLNPQFLEDFKLVHHNEPSLMSTGVLLCGVERRGLVHALRDKCRSQGIAIRFESPLLEHGELPLADYDLVVLANGVNHKTAHFTEALVPQVDYGRNKYIWYGTSQLFDQMNLVFRTHGKDIFIAHAYKYSDTMSTFIVECSEETYARARLGEMSEEASAEYVAKVFQAELGGHGLVSQPGLGWRNFMTLSHDRCHDGKLVLLGDALQSGHFSIGHGTTMAVVVAQLLVKALCTEDGVPAALKRFEERALPLVQLFRGHADNSRVWFETVEERMHLSSAEFVQSFDARRKSLPPMPEALAQNLRYALQRLEHHHHHH”, which “soluble on expression in E. coli” value is on record?
The value was “soluble”.

Which “soluble on expression in E. coli” value does the source give for “MGHHHHHHSHLPAIRTLQSLAFHPNVTFIIGENGTGKSTLLEGIAIALGFNAEGGTKNFRFSTNDSHSSLHEYLRISKSFNTPSDGFFLRAESFYNVASYIDEIDADLEARGNPVIDSYGGISLHEQSHGESFFSLFMNRFSGQGLYILDEPEAALSPMRQLSMLIRMHELAEQGSQFVIATHSPILMAYPESTIYSLTQEG” here?
The value was “not soluble”.

Which “soluble on expression in E. coli” value does the source give for “MSQPLNVAVVGATGSVGEALVGLLDERDFPLHRLHLLASAESAGQRMGFAESSLRVGDVDSFDFSSVGLAFFAAAAEVSRAHAERARAAGCSVIDLSGALEPSVAPPVMVSVNAERLASQAAPFLLSSPCAVAAELCEVLAPLLATLDCRQLNLTACLSVSSLGREGVKELARQTAELLNARPLEPRLFDRQIAFNLLAQVGAVDAEGHSAIERRIFAEVQALLGERIGPLNVTCIQAPVFFGDSLSVTLQCAEPVDLAAVTRVLDATKGIEWVGEGDYPTVVGDALGQDETYVGRVRAGQADPCQVNLWIVSDNVRKGAALNAVLLGELLIKHYL” here?
The value was “soluble”.

With “LGGVFKKAGSKGLKGVRLVISDAHEGLKAAIKKILTGSAWQRCRVHFMRNVLSQVPKHYQGMVSSIIRTIFAQNDQESAREQLRHVVDELKNRFPKAMKILEEAEEEILAYMAFPREHWAQIHSTNPLERLNREIRRRTDVVCIFPNREAVIRLVGAMLMEQNDEWKVGRRYFSLESMSKITSINEFTLTPVALLHK” as the sequence, how does the “soluble on expression in E. coli” value read?
Its value is “soluble”.

Which “soluble on expression in E. coli” value does the source give for “MGSDKIHHHHHHMSRLVRSATLSRYTEVARSVGLDPLRILAEVGLPRTCLDAGDNLVSANAVCRLLEMSAADSDAEDFGLRMGEGRQLSVLGPLGMAVRDSPTLRDALGAMVRYITLHSEALFLGVEEREGALVIRVSLIVEHAGSTRQADEMVVVSLYRMLQELIGPGWRARRICLSHEAPRSLASHLRVFGRAVDFGCDFNGIVCELKDMDAMPRAARPELAQYAHAYLDSLSARATLSMTENVRRMVLSLLPSGNCSVERVASQLGVDRRTVHRKLLQEGASFSSILDEVRATLALQYLRHLERPVSYVAVLLGFSMQSAFSRWFRDHFGCSPSAWRSEGMQPARPVPRQPLLAASPEQRM” here?
Its value is “not soluble”.

Which “soluble on expression in E. coli” value does the source give for “MSLTGLCDSHLHTPLCGHATGTPREYAQAALDAGLSGLCFTDHMPMPRWYDAPWRMKLEQLPEYIAEIQAVQQEFAGRLDVRLGLEADFHPGTEKFVEKVLGMFDWDYVIGSVHYLGAWGFDNPEFVAEYEERDLGGLYRDYYALVEGAARSGLFDAIGHLDLPKKFGHLDPDPVYALHALDVVAGQGLALDFNTAGWRKPVAEAYPAPDLVRAAAERGIPFVLGSDAHQPGEVGFRFADAVKEIRDVGGRTVTFRHRKMQEGHHHHHH” here?
The value was “soluble”.

For “MNLLFQSYLDNVGVQIVRQMRSGERFLKIWSQTVEEIVSYVTVNF”, which “soluble on expression in E. coli” value is on record?
The value was “soluble”.

For “MSLGFKEYYRAFPTYTKIESKEYKGRVETLGPILIKYMNKNRGKVLDLACGVGGFSFFLEDLGFDVVGLDNNPEMIEAAKRYAEKRSSKVNFVVGDAKNLPFENNSFDYVIFIDSIFHFTPSELNQVFKEVKRVIKPEGRFLIYFTDLRELLPNLKERLVIGEKYWVNRITTDTSERIATIEFKSEDDEFRVEFNIWGKTGVELLAKLYFTKEAEEKVGGYSYLIVYNPKEGHHHHHH”, which “soluble on expression in E. coli” value is on record?
Its value is “soluble”.

With “MKGIMVQGTASDVGKSLICTALCRIFARRGYKVTPFKSQNMSNNSYITVEGLEIGRAQGIQAEAAMEEASVYMNPILLKPRNDREAEIVCFGQAVDTVSGVKYRDGFYKRGLEAIKQALATLSQSFDMVVIEGAGSPVEVNLNDRELVNMKVAELADVPVILVADIERGGVFASLYGTLELLQPNERKRVVGIIVNKFRGDPELFSSGVQWIEQHLGVPVLGVLPHLPGVRIEGEDSLSKGQVTSVLPRDQSIDIAVLDLPYLSNYTDLEPFRYEEDVAIRFVSSVDALGRPDAIILPGTKSTFHDLQILKEKGFKERLHEYVTTDGTVVAICGGFQMLGHRLIDVAGSDTGIKGATIDGLDLAPVETRFAEKKKTVRSLGQLLHPFGTAKDIYGFEIHLGETDIVDPSIPAFLRVGNHTDGVYLHEGRLIGTYFHHLFFNDDFRSGWLNTLRRKKGLRERPTVELEKCRRASYDQLADEVERVLHVDSLLEKMERWGETS” as the sequence, how does the “soluble on expression in E. coli” value read?
Its value is “soluble”.

Which “soluble on expression in E. coli” value does the source give for “MGSDKIHHHHHHMKKFYDEMHASGDKVREHYAGYERWLAQQPHESMKGHRDEAEMIFRRVGITFAVYGAKDEDGSGTERLIPFDLIPRIIPAQEWREMEKGLRQRVNALNRFIHDVYHDQEIIKAGIVPGEQVFKNAQFRPEMMGVDVPGNVYSQIAGIDIVRAANPDGSGNYYVLEDNLRVPSGVSYMLENRKMMMRLFPELFSSHRVAPVAHYPDLLLDTLRAVAPPGVAEPTVVVMTPGMYNSAYFEHAFLAQQMGVELVEGQDLFVKDNYLYMRTTQGPRRVDVIYRRIDDDFLDPKAFRADSTIGCAGLLSVYRAGNVNLCNAIGTGVADDKSIYPYVPKMIEFYLGEKPILNNVPTYLCRESEDLQYVLAHLGELVVKEVHGAGGYGMLVGPAASKAEIEEFRTQLVANPSNYIAQPTLALSTCPTFVESGIAPRHIDLRPFVLSGKTVQMVPGGLTRVALKEGSLVVNSSQGGGTKDTWMLEA” here?
Its value is “not soluble”.

With “MTIDVWMQHPTQRFLHGDMFASLRRWTGGSIPETDIPIEATVSSMDAGGVTLGLLSAWRGPNGQDLISNDAVAEWVRLYPNRFAGLAAVDLDRPMAAVRELRRRVGEGFVGLRVVPWLWGAPPTDRRYYPLFAECVQSAVPFCTQVGHTGPLRPSETGRPIPYIDQVALDFPELVIVCGHVGYPWTEEMVAVARKHENVYIDTSAYTIKRLPGKLVRFMKTDTGQRKVLFGTNYPMIAHTHALTGLDELGLSDEARRDFLHGNAVRVFKLDPRGKVQT” as the sequence, how does the “soluble on expression in E. coli” value read?
Its value is “not soluble”.

Which “soluble on expression in E. coli” value does the source give for “MGSDKIHHHHHHMNKDFTFTIKSIRLDEDYHPSDSTRITTNFANLARGSYRQANLRNALKMIDNSFNALANWDNPKGDRYSVELEIISVDMDIEGSGKTFPSIEILKTNIVDHQTNQRIEGIVGNNFSSYVRDYDFSVLLQAHNKDQPNFSIPDNFGELHGKLFQYFVNSNAYKQNFKKTPVICLSVSDNKTYHRTENQHPVLGVEYQPNESSLTEQYFKKMGLQVRYFMPPNSVAPLAFHFFGDLLNDYTNLELISTISTMGTFQKIYRPEIYNANAAAGKSYQPNLKNLDHSLTQIVYDREERSKLANEQGKFAEKHFIKPYQTVLEQWSANYV” here?
Its value is “not soluble”.

With “MGSDKIHHHHHHMTENQTAHVRALILDATPLITQSYTHYQNYAQSFYTTPTVFQEIKDAQARKNLEIWQSLGTLKLVHPSENSIAKVSTFAKLTGDYSVLSANDLHILALTYELEIKLNNGDWRLRKKPGDALDASKADVGTDGKQKLTEDNKKEEDSESVPKKKNKRRGGKKQKAKREAREAREAENANLELESKAEEHVEEAGSKEQICNDENIKESSDLNEVFEDADDDGDWITPENLTEAIIKDSGEDTTGSLGVEASEEDRHVALNRPENQVALATGDFAVQNVALQMNLNLMNFMSGLKIKRIRNYMLRCHACFKIFPLPKDGKPKHFCASCGGQGTLLRCAVSVDSRTGNVTPHLKSNFQWNNRGNRYSVASPLSKNSQKRYGKKGHVHSKPQENVILREDQKEYEKVIKQEEWTRRHNEKILNNWIGGGSADNYISPFAITGLKQHNVRIGKGRYVNSSKRRS” as the sequence, how does the “soluble on expression in E. coli” value read?
The value was “not soluble”.

Which “soluble on expression in E. coli” value does the source give for “MSLADLLDTVKQRGALKIALEGTYPPFNFKDAKQQLTGFDVEIATEIARRMKVKPEFVTAEWSGLLAGLQSGKFDIVVNQVGVTAQRQAVFDFSQPYTYSSAQLIVRKNESRDFKNLADLKGKKLGVGQGSNYADMAKAAAGVQVKTYPGAPEYLQDLATGRLDAALNDSLLIPFAIKQAKLPLKAGAPVGEVAAMAIPFAKGNPQFKSEIDKALGGMKADGTFRKISVKWFGIDVSKAEGHHHHHH” here?
Its value is “soluble”.

Which “soluble on expression in E. coli” value does the source give for “SLEYNLTTKEVEMVNVTASWDEGIGELFEKVKQNDSERKMANGDDGLFFSNFSLHVTPVLKNISFKLEKGELLAIAGSTGSGKSSLLMMIMGELEPSDGKIKHSGRISYSPQVPWIMPGTIKDNIIFGLSYDEYRYTSVVNACQLEEDITVFPNKDKTVLGDGGITLSGGQRARISLARALYKDADLYLLDSPFSHLDVTTEKDIFESCLCKLMVNKTRILVTSKLEHLKKADKILLLHEGHCYFYGTFSELQGEKPDFSSQLLGSVHFDSFSAERRNSILTETFRRCSVSSGDGAGLGSEG” here?
Its value is “soluble”.

Which “soluble on expression in E. coli” value does the source give for “DWVIPPINLPENSRGPFPQELVRIRSDRDKNLSLRYSVTGPGADQPPTGIFIINPISGQLSVTKPLDRELIARFHLRAHAVDINGNQVENPIDIVINVIDMNDNRPEFLHQVWNGSVPEGSKPGTYVMTVTAIDADDPNALNGMLRYRIVSQAPSTPSPNMFTINNETGDIITVAAGLDREKVQQYTLIIQATDMEGNPTYGLSNTATAVITVTD” here?
Its value is “soluble”.

Which “soluble on expression in E. coli” value does the source give for “MGSDKIHHHHHHMIPDKSVEILLGELSRDIAQRTPGTGDFPTAVEGLELFRRNEPAPPVSCLVPPSIVLVADGAKIMWVGGEPYEYNAEKFLITSLDLPASSEILQASTSQPCVGVAYKLDQRVLMELIAQGSLPPVKKRDAGTSVGIGTITDALLEPFCRLLSLLDEPEAIPVLGPLIQREIHYRLLMSDQSDHLRQIAAVDGHGYRIGKAIDWLKTNIASPLRVEELASRVQMSTPSFHHHFRQLAGMSPLRYQKWLRLNEARRLMLNEHYDVTTAAYAVGYESLSHFSREYTRMFGESPKRDITELRKSAGKL” here?
Its value is “not soluble”.

With “SNAMKQIIDIENWERKENFNFFRHFQNPQLSITSEVECGGARQRAKAAGQSFFLHYLYAVLRAANEIPEFRYRIDPDGRVVLYDTIDMLSPIKIKENGKFFTTRFPYHNDFDTFYQEARLIIDAIPEDGDPYAAENEEVADGDYGLILLSATPDLYFTSITGTQEKRSGNNYPLLNAGKAIIREGRLVMPIAMTIHHGFIDGHHLSLFYKKVEDFLK” as the sequence, how does the “soluble on expression in E. coli” value read?
Its value is “soluble”.

Which “soluble on expression in E. coli” value does the source give for “MALKLPIPHNILILNRNSALELLRALKEVPKLIITRIPPDEWPDVAYTEYIWLSRVEGPNSVSPTALHVIIERAKTFLDENSGGVIYVDGIEYIMLYEEFKSVAKFLLTLKDIAVVKEGHLILHVDPKTLEDHQMAVLEREFVKINVEETIEKIRGPTLFGALIEEKGLEHHHHHH” here?
The value was “soluble”.
